We go through seven substances from publication PMC9024677.

For assay [1], the target named is human cardiac α-actin mutant p.R312H (human). Nature of the assay: pyrene-actin polymerization assay; 5 μM actin with pyrene-labelled skeletal muscle actin (20:1) in G-buffer; polymerization started with 2 mM MgCl2 (and 0.05 M KCl); fluorescence increase followed over time.
For assay [2] the target is unchanged. Nature of the assay: other fluorescence titration; critical concentration of polymerization (monomer to filament): 0.1 to 10 μM c-actin with 5% pyrene-actin, 2 mM MgCl2 and 0.05 M KCl overnight; steady-state fluorescence against actin concentration.
For assay [3], the target named is human cardiac α-actin variant p.R312K (human). Nature of the assay: pyrene-actin polymerization assay; 5 μM actin with pyrene-labelled skeletal muscle actin (20:1) in G-buffer; polymerization started with 2 mM MgCl2 (and 0.05 M KCl); fluorescence increase followed over time.
The target is the same in assay [4]. Nature of the assay: other fluorescence titration; critical concentration of polymerization (monomer to filament): 0.1 to 10 μM c-actin with 5% pyrene-actin, 2 mM MgCl2 and 0.05 M KCl overnight; steady-state fluorescence against actin concentration.
Assay [5] addresses human wild type cardiac α-actin (recombinant) (human) (UniProt P68032). In words: pyrene-actin polymerization assay; 5 μM actin with pyrene-labelled skeletal muscle actin (20:1) in G-buffer; polymerization started with 2 mM MgCl2 (and 0.05 M KCl); fluorescence increase followed over time.
The target of assay [6] is deoxyribonuclease I (DNase I) (bovine) (UniProt P00639).
In assay [7] the target is human wild type cardiac α-actin (recombinant) (human) (UniProt P68032). In words: other fluorescence titration; critical concentration of polymerization (monomer to filament): 0.1 to 10 μM c-actin with 5% pyrene-actin, 2 mM MgCl2 and 0.05 M KCl overnight; steady-state fluorescence against actin concentration.
Assay [8] deals with human cardiac α-actin mutant p.E361G (human). In words: pyrene-actin polymerization assay; 5 μM actin with pyrene-labelled skeletal muscle actin (20:1) in G-buffer; polymerization started with 2 mM MgCl2 (and 0.05 M KCl); fluorescence increase followed over time.
Assay [9] shares this target. In words: other fluorescence titration; critical concentration of polymerization (monomer to filament): 0.1 to 10 μM c-actin with 5% pyrene-actin, 2 mM MgCl2 and 0.05 M KCl overnight; steady-state fluorescence against actin concentration.
Assay [10] deals with human cardiac α-actin mutant p.A295S (human). In words: pyrene-actin polymerization assay; 5 μM actin with pyrene-labelled skeletal muscle actin (20:1) in G-buffer; polymerization started with 2 mM MgCl2 (and 0.05 M KCl); fluorescence increase followed over time.
Assay [11] shares this target. In words: other fluorescence titration; critical concentration of polymerization (monomer to filament): 0.1 to 10 μM c-actin with 5% pyrene-actin, 2 mM MgCl2 and 0.05 M KCl overnight; steady-state fluorescence against actin concentration.
The target of assay [12] is human cardiac α-actin mutant p.R312H (human).
Assay [13] has as its target human wild type cardiac α-actin (recombinant) (human) (UniProt P68032).
Assay [14] has as its target human cardiac α-actin mutant p.E361G (human).
The target of assay [15] is bovine cardiac α-actin (bovine) (UniProt Q3ZC07).
Assay [16] deals with human cardiac α-actin mutant p.A295S (human).
Assay [17] addresses bovine cardiac α-actin (bovine) (UniProt Q3ZC07). Nature of the assay: pyrene-actin polymerization assay; 5 μM actin with pyrene-labelled skeletal muscle actin (20:1) in G-buffer; polymerization started with 2 mM MgCl2 (and 0.05 M KCl); fluorescence increase followed over time.
Assay [18] shares this target. In words: other fluorescence titration; critical concentration of polymerization (monomer to filament): 0.1 to 10 μM c-actin with 5% pyrene-actin, 2 mM MgCl2 and 0.05 M KCl overnight; steady-state fluorescence against actin concentration.

Sequence of deoxyribonuclease I (DNase I) (bovine) (P00639 23-282): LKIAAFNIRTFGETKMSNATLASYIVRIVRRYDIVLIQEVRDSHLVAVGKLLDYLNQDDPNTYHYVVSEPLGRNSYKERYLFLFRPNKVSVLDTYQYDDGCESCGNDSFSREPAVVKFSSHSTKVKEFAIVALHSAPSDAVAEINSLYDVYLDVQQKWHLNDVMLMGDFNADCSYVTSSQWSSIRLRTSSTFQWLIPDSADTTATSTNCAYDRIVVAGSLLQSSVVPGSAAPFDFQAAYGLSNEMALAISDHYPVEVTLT

Regarding “human cardiac α-actin mutant p.R312H (natural protein)”, the half time of polymerization (t 1/2) in [1] was 10.8 min. This substance also gave a critical concentration of polymerization (Cc) in [2] of 0.7 µM.

“human cardiac α-actin variant p.R312K (natural protein)”: the half time of polymerization (t 1/2) in assay [3] is 3.08 min. Also, the critical concentration of polymerization (Cc) in assay [4] came out at 0.21 µM.

For “human wild type cardiac α-actin (recombinant) (from UniProt P68032 1-377) (natural protein)”, the half time of polymerization (t 1/2) in assay [5] is 2.5 min. This substance also showed an inhibition of DNase I activity (hyperchromicity assay), 3.2 μM DNase I pre-incubated with zero to 6.4 μM G-actin; concentration for complete inhibition against skeletal muscle actin in assay [6] (scale: fold higher concentration than skeletal muscle actin) of 3. In addition, the critical concentration of polymerization (Cc) in assay [7] came out at 0.2 µM.

In assay [8], “human cardiac α-actin mutant p.E361G (natural protein)” had a half time of polymerization (t 1/2) of 1.6 min. Also, the critical concentration of polymerization (Cc) in assay [9] is 0.2 µM.

As for “human cardiac α-actin mutant p.A295S (natural protein)”, in [10], the half time of polymerization (t 1/2) was determined as 8.5 min. Further, in assay [6], the inhibition of DNase I activity (hyperchromicity assay), 3.2 μM DNase I pre-incubated with zero to 6.4 μM G-actin; inhibitory capacity against wt c-α-actin turned out to be 33%. In addition, the critical concentration of polymerization (Cc) in assay [11] came to 0.4 µM.

“rabbit skeletal muscle myosin subfragment-1 (domain or fragment)”: the apparent KM of the myosin-S1 ATPase stimulation by F-c-actin (double reciprocal plot), pCa 4.3, without cTm/cTn in assay [12] was 0.096 µM; in assay [13], 0.165 µM; in assay [14], 0.075 µM; in assay [15], 0.081 µM; in assay [16] it was 0.966 µM. For the same substance, the apparent KM of the myosin-S1 ATPase stimulation by F-c-actin decorated with cTm/cTn (6:1:1), pCa 4.3 in assay [12] is 0.0243 µM; in assay [13], 0.217 µM; in assay [14], 0.173 µM; in assay [16], 3.31 µM.

On to “bovine cardiac α-actin (from UniProt Q3ZC07 1-377) (natural protein)”, for which the half time of polymerization (t 1/2) in assay [17] came out at 2.7 min. Also, in [18], the critical concentration of polymerization (Cc) came out at 0.21 µM.
